Results from patent US20240108766A1 (Bayer, published 2024).

T1: human LRRC15 extracellular domain with C-terminal His tag (human, UniProt Q8TF66 22-538)
T1 construct: Recombinant, made in HEK293; the entry holds the extracellular domain and the His tag; SPR analyte; also called TPP-1545; hLRRC15 CT-His
T1 sequence: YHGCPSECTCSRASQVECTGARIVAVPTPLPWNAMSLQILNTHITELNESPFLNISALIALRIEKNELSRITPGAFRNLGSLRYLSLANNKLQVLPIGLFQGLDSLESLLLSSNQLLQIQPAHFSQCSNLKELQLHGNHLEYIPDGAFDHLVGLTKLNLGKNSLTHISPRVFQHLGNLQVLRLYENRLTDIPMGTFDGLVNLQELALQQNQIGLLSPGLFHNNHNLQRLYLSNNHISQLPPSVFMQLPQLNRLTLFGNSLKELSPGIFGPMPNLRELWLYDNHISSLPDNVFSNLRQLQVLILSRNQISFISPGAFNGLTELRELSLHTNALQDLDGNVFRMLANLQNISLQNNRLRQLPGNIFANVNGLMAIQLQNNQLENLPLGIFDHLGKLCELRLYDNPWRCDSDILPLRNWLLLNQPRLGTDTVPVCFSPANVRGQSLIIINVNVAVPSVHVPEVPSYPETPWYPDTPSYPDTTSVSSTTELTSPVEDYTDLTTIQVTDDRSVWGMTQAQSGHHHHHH

T2: human LRRC15 expressed on cells (human, UniProt Q8TF66 22-581)
T2 construct: whole, on cells; On HEK293 cells transfected with LRRC15/ZsGreen1 (Retrogenix), on HT29 cells transfected with human LRRC15, and endogenous on Saos-2; also called LRRC15/ZsGreen1 transfected HEK293 cells; HT29-LRRC15
T2 sequence (looked up): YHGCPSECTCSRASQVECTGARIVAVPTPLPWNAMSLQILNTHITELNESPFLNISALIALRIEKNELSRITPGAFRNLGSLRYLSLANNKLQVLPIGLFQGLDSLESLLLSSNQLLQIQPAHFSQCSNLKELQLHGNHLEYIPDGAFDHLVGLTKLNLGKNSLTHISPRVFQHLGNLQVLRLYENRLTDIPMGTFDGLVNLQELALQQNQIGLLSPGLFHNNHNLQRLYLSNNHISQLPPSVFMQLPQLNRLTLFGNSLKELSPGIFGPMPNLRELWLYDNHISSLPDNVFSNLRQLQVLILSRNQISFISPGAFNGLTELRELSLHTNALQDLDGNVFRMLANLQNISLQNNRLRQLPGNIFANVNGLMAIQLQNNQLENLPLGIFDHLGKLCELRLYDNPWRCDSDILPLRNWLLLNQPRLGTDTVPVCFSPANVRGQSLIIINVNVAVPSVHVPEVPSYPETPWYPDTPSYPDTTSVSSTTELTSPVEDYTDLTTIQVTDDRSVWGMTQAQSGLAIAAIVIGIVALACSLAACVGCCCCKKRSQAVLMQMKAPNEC

T3: Ephrin type-B receptor 6 (EPHB6) on transfected HEK293 cells (human, UniProt O15197 32-1021)
T3 construct: whole, on cells; also called EPHB6/ZsGreen1
T3 sequence (looked up): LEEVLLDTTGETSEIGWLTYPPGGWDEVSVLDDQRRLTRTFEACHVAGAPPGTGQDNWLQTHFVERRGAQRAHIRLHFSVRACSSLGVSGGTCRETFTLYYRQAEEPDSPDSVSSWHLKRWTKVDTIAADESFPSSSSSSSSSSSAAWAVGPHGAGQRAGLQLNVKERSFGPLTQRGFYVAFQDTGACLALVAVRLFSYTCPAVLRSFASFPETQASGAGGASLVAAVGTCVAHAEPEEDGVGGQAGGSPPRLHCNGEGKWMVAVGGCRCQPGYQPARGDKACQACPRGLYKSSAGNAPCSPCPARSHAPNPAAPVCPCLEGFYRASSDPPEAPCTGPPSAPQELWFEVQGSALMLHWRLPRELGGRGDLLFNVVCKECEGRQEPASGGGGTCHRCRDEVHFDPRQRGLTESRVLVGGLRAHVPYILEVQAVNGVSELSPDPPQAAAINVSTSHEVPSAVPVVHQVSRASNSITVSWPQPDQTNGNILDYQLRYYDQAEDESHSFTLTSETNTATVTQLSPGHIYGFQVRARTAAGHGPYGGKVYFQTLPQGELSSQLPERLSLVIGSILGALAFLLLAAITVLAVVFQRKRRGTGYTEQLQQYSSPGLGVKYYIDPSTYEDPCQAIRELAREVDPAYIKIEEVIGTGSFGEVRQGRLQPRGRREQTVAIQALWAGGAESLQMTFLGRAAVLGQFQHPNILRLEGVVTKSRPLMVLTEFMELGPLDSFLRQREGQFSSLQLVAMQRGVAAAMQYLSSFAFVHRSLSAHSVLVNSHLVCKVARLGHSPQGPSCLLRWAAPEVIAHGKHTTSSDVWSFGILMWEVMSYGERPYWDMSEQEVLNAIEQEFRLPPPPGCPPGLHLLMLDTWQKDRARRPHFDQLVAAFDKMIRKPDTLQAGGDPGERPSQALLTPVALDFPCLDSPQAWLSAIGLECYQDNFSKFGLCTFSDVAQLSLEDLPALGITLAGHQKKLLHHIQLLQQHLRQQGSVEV


Experiments:
[1] = biological target: T1, human LRRC15 extracellular domain with …; test: calculated from SPR kd, 37°C
Description: (§1) To assess if anti-LRRC-15 antibodies show a difference in binding at different temperatures, binding assays were conducted using surface plasmon resonance (SPR). Binding assays were performed on a Biacore T200 instrument at temperatures of 10° C., 20° C., 25° C. and 37° C. with assay buffer HBS EP+, 1 mg/ml BSA (bovine serum albumine), 300 mM NaCl, 0.05% NaN₃. Antibodies were captured via anti-human Fc IgGs covalently amine coupled to a CM5 sensor chip and human LRRC15 was used as an analyte in a concentration series from 1.56-200 nM in multi cycle kinetics mode. Pre-experiments were conducted to have an equal capture level at each temperature. Obtained sensorgrams were fitted to a 1:1 Langmuir binding model to derive kinetic data.

[2] = biological target: T2, human LRRC15 expressed on cells; test: flow cytometry, transfected HEK293, 0.5 µg/ml
[3] = biological target: T2, human LRRC15 expressed on cells; test: flow cytometry, transfected HEK293, 0.1 µg/ml
[4] = biological target: T1, human LRRC15 extracellular domain with …; test: SPR Biacore T200, antibody captured, LRRC15 analyte, 10°C
Description: as §1

[5] = biological target: T1, human LRRC15 extracellular domain with …; test: SPR Biacore T200, antibody captured, LRRC15 analyte, 20°C
Description: as §1

[6] = biological target: T3, Ephrin type-B receptor 6 (EPHB6) on …; test: flow cytometry, transfected HEK293, 0.02 µg/ml

Row | Binder | Complex Half Life [1] [min] | Median Fluorescence AF647 [2] | Median Fluorescence AF647 [3] | Kd [4] [nM] | Kd [5] [nM] | Median Fluorescence AF647 [6]
1 | TPP-12942 (antibody, human IgG1, kappa, V domains shown, Prior art humanized IgG1 kappa antibody, used as comparator; also called huM25; huM25-hIgG1Kappa) VH: EVQLVQSGAEVKKPGASVKVSCKASGYKFSSYWIEWVKQAPGQGLEWIGEILPGSDTTNYNEKFKDRATFTSDTSINTAYMELSRLRSDDTAVYYCARDRGNYRAWFGYWGQGTLVTVSS VL: DIQMTQSPSSLSASVGDRVTITCRASQDISNYLNWYQQKPGGAVKFLIYYTSRLHSGVPSRFSGSGSGTDYTLTISSLQPEDFATYFCQQGEALPWTFGGGTKVEIKR | 1.6 | 524000 | 213000 | 5.2 |  | 
2 | TPP-14389 (antibody, human IgG1, kappa, V domains shown, also called 13612-rec02-hIgG1Kappa) VH: EVQLLESGGGLVQPGGSLRLSCAASGFTFSGYMMSWVRQAPGKGLEWVSGIYPSPGYTYYADSVKGRFTISRDNSKNTLYLQMNSLRAEDTAVYYCAREKASDLFGSYSEALDYWGQGTLVTVSS VL: DIQMTQSPDSLSASVGDRVTITCRASQDVGSWLAWYQQKPGKAPKLLIFAASSLESGIPSRFSGSGSGTDFTLTISSLQPEDFATYYCQQANGFPLTFGGGTKVEIKR | 0.6 |  |  | 0.61 | 2 | 

Further lines, results first:

Row | Complex Half Life [1] [min] | Median Fluorescence AF647 [2] | Median Fluorescence AF647 [3] | Kd [4] [nM] | Kd [5] [nM] | Median Fluorescence AF647 [6] | Binder
3 | 64.2 | 391000 | 102000 | 0.46 | 0.82 | 1770 | TPP-17421 (antibody, human IgG1, kappa, V domains shown, also called 438H-M306-C11-hIgG1Kappa) VH: EVQLVQSGAEVKKPGASVKVSCKASGYKFSSYWIEWVKQAPGQGLEWIGEILPGSDWTNYNEKFKDRATFTSDTSINTAYMELSRLRSDDTAVYYCARDRGNYRAWFQYWGQGTLVTVSS VL: DIQMTQSPSSLSASVGDRVTITCRASQSISSYLNWYQQKPGGAPKFLIYYASSLQSGVPSRFSGSGSGTDYTLTISSLQPEDFATYYCQQGLELPWTFGGGTKVEIKR
4 | 17.5 | 527000 | 284000 | 0.32 | 0.88 | 2540 | TPP-17078 (antibody, human IgG1, kappa, V domains shown, also called 438H-M308-H05-hIgGkappa) VH: EVQLVQSGAEVKKPGASVKVSCKASGYKFSSYWIEWVKQAPGQGLEWIGEILPGSDTTNYNEKFKDRATFTSDTSINTAYMELSRLRSDDTAVYYCARDRGNYRAWFGYWGQGTLVTVSS VL: DIQMTQSPSSLSASVGDRVTITCRASQSISSYLNWYQQKPGGAPKFLIYYASSLQSGVPSRFSGSGSGTDYTLTISSLQPEDFATYYCQQGFSLPWTFGGGTKVEIKR
